Assay results from paper PMC2845083.

Biological target: 6xHis-hKNL1 fragment (amino acids 1-86), Ser-Asp phospho-mimetic mutations in the SILK and RVSF motifs (human) (UniProt Q8NG31)
Assay: pull-down

reduction of binding against wild type: > 70%
Substance: recombinant hPP1γ (protein phosphatase 1 gamma catalytic subunit) (from UniProt P36873 1-323) (enzyme)
